Each block holds one molecule with its values, some of them ahead of it.
How the values were obtained:
rat CD163 on cells (rat) [1] = target: rat CD163 on cells (rat) (UniProt D3Z9U2); experiment: flow cytometry, rat peritoneal macrophages, ED2-FITC
rat CD163 on cells (rat) [2] = target: rat CD163 on cells (rat) (UniProt D3Z9U2); experiment: flow cytometry, rat peritoneal macrophages stained with anti-rat CD172a-PE (ED9) and anti-rat CD163-FITC (ED2)
[3] = target: human CD163 on cells (human) (UniProt Q86VB7); experiment: flow cytometry, R-PE mAb, fresh EDTA whole blood
[4] = target: purified recombinant CD163 immobilized on a Biacore chip (human) (UniProt Q86VB7); experiment: SPR, immobilized recombinant CD163, 10 mM EDTA buffer
Chain of purified recombinant CD163 immobilized on a Biacore chip (human) (Q86VB7 42-1050 limits assumed): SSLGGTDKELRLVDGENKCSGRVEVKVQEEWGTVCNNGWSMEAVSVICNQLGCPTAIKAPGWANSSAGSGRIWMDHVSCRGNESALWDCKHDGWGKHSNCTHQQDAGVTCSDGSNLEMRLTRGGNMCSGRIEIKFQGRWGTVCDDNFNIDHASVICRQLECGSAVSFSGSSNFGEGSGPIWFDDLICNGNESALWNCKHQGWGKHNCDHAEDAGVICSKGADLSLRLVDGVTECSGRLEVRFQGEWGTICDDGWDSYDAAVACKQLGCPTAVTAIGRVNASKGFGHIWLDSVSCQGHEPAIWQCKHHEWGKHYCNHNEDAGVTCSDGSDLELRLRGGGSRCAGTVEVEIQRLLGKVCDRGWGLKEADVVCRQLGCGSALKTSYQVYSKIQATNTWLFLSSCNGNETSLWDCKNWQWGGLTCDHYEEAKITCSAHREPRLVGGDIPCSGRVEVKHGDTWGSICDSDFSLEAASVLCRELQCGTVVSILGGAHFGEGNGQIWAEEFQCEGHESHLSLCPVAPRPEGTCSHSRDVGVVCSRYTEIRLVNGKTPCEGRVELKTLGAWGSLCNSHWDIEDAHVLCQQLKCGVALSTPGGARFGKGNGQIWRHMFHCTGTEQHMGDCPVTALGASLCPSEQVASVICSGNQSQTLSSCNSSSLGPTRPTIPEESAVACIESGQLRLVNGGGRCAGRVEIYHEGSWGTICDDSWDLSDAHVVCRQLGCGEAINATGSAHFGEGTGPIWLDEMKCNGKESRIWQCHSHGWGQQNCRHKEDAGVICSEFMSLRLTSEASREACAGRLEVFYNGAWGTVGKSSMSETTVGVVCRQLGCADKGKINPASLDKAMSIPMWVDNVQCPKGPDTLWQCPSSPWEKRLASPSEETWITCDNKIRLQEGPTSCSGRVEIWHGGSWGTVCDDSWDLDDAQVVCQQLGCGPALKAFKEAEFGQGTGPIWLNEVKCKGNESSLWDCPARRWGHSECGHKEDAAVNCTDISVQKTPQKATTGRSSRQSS

[5] = target: human CD163 on cells (human) (UniProt Q86VB7); experiment: flow cytometry, fresh whole blood, citrate as anticoagulant
[6] = target: human CD163 on cells (human) (UniProt Q86VB7); experiment: flow cytometry, fresh whole blood, heparin as anticoagulant
[7] = target: human CD163 on cells (human) (UniProt Q86VB7); experiment: flow cytometry, PE mAb, CD163+ peripheral blood dendritic cells
[8] = target: human CD163 on cells (human) (UniProt Q86VB7); experiment: flow cytometry, PBMC isolated by density gradient centrifugation
[9] = target: human CD163 on cells (human) (UniProt Q86VB7); experiment: flow cytometry, PE mAb, CD14-ILT3+ dendritic cells in whole blood
[10] = target: human CD163 on cells (human) (UniProt Q86VB7); experiment: flow cytometry, CD14+ILT3+HLA-DR+ monocytes; clone GHI/61 by paragraph 356
[11] = target: human CD163 on cells (human) (UniProt Q86VB7); experiment: quantitative flow cytometry, fresh whole blood, citrate as anticoagulant
[12] = target: human CD163 on cells (human) (UniProt Q86VB7); experiment: quantitative flow cytometry, fresh whole blood, heparin as anticoagulant
[13] = target: human CD163 on cells (human) (UniProt Q86VB7); experiment: quantitative flow cytometry (Quantibrite PE beads), fresh EDTA whole blood
[14] = target: human CD163 on cells (human) (UniProt Q86VB7); experiment: quantitative flow cytometry, PBMC isolated by density gradient centrifugation
[15] = target: human CD163 on cells (human) (UniProt Q86VB7); experiment: flow cytometry, CD163low subset of peripheral blood dendritic cells; clone GHI/61 by paragraph 356
[16] = target: human CD163 on cells (human) (UniProt Q86VB7); experiment: flow cytometry, CD163high subset of peripheral blood dendritic cells; clone GHI/61 by paragraph 356
[17] = target: human CD163 on cells (human) (UniProt Q86VB7); experiment: 125I-labelled mAb on stable CD163 transfected Flp-In CHO cells (non-transfected cells: 1.23%)
rat CD163 on cells (rat) [18] = target: rat CD163 on cells (rat) (UniProt D3Z9U2); experiment: flow cytometry, rat peritoneal macrophages, negative control staining with IgG-FITC
[19] = target: human CD163 on cells (human) (UniProt Q86VB7); experiment: flow cytometry, fresh whole blood, EDTA as anticoagulant
[20] = target: human CD163 on cells (human) (UniProt Q86VB7); experiment: flow cytometry, mononuclear cells from buffy coat, Mac2-158-FITC with KN2/NRY-Alexa Fluor647
[21] = target: human CD163 on cells (human) (UniProt Q86VB7); experiment: 125I-labelled mAb on stable CD163 transfected Flp-In CHO cells (non-transfected cells: 1.37%)
[22] = target: human CD163 on cells (human) (UniProt Q86VB7); experiment: flow cytometry, human mononuclear cells from buffy coats stained with Mac2-158-FITC, anti-CD14-PE and KN2/NRY-Alexa Fluor647
[23] = target: human CD163 on cells (human) (UniProt Q86VB7); experiment: flow cytometry, peripheral blood dendritic cells, negative staining control
[24] = target: human CD163 on cells (human) (UniProt Q86VB7); experiment: quantitative flow cytometry (Quantibrite PE beads), fresh EDTA whole blood, isotype control
[25] = target: purified recombinant CD163 immobilized on a Biacore chip (human) (UniProt Q86VB7); experiment: SPR, immobilized recombinant CD163, 2 mM free Ca2+
[26] = target: human CD163 on cells (human) (UniProt Q86VB7); experiment: quantitative flow cytometry, fresh whole blood, EDTA as anticoagulant
[27] = target: human CD163 on cells (human) (UniProt Q86VB7); experiment: 125I-labelled mAb on stable CD163 transfected Flp-In CHO cells (non-transfected cells: 1.47%)
[28] = target: T1, murine CD163 in solubilized murine spleen (mouse, UniProt Q2VLH6 39-1121, limits assumed); experiment: western blot of solubilized murine spleen with hybridoma supernatants
T1 construct: also called non-reduced CD163
T1 sequence (Q2VLH6 39-1121 limits assumed): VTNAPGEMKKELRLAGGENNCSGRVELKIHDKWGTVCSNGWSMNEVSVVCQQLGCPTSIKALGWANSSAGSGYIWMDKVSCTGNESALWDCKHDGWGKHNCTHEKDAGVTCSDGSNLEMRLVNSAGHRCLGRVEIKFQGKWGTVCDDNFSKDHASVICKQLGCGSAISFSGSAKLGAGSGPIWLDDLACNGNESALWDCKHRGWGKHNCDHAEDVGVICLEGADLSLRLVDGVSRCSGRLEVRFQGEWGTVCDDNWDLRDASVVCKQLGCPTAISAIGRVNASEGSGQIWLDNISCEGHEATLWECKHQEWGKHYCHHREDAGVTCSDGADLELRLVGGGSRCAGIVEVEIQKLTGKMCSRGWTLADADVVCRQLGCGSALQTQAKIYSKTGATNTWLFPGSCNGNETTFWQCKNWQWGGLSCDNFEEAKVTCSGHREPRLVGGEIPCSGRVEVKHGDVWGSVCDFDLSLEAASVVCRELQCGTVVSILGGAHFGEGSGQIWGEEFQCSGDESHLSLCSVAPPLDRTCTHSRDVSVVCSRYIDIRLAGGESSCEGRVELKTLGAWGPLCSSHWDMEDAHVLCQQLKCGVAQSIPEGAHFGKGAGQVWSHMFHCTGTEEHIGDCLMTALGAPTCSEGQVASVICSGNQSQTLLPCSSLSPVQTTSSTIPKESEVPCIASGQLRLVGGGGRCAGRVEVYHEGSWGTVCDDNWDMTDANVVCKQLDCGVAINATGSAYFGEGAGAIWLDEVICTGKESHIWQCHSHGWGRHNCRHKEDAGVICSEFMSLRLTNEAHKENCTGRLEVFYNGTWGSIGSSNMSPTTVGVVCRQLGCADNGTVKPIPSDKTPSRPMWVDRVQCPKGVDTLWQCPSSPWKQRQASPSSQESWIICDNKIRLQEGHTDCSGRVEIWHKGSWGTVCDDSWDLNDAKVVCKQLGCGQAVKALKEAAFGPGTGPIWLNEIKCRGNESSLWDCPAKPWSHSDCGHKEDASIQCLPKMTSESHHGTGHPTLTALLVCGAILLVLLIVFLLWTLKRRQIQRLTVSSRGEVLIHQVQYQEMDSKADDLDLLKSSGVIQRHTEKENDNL
Excerpt: The clones were screened by testing binding of supernatants to murine CD163 in solubilized murine spleen loaded on a SDS-PAGE and western blotted, using standard techniques.

Molecule: GHI/61 (antibody)
fraction of CD14+ monocytes stained positive for CD163 [3]: 63% | Kd [4]: 29 nM | fraction of CD14+ monocytes stained positive for CD163 [5]: 64.4% | fraction of CD14+ monocytes stained positive for CD163 [6]: 0.82% | MFI [7]: 22.3 MFI | fraction of CD14+ monocytes stained positive for CD163 [8]: 1.26% | fraction of peripheral blood dendritic cells recognized [9]: 10.5% | percent of cells stained positive [10]: 88% | density of CD163 receptors per monocyte (PE antibodies bound per cell) [11]: 1150 per monocyte | density of CD163 receptors per monocyte (PE antibodies bound per cell) [12]: 58.3 per monocyte | density of CD163 receptors per monocyte (PE antibodies bound per cell) [13]: 1030 per monocyte | density of CD163 receptors per monocyte (PE antibodies bound per cell) [14]: 108 per monocyte | MFI [15]: 4.2 MFI | MFI [16]: 34.6 MFI | percentage of cell-associated radioactivity [17]: 1.23%

Molecule: Mac2-158 (antibody)
fraction of CD14+ monocytes stained positive for CD163 [3]: 84.1% | fraction of CD14+ monocytes stained positive for CD163 [19]: 87.2% | fraction of CD14+ monocytes stained positive for CD163 [5]: 84% | fraction of CD14+ monocytes stained positive for CD163 [6]: 84.4% | MFI [7]: 108 MFI | fraction of CD14+ monocytes stained positive for CD163 [8]: 81.1% | fraction of peripheral blood dendritic cells recognized [9]: 32.3% | density of CD163 receptors per monocyte (PE antibodies bound per cell) [11]: 17700 per monocyte | density of CD163 receptors per monocyte (PE antibodies bound per cell) [12]: 18900 per monocyte | density of CD163 receptors per monocyte (PE antibodies bound per cell) [13]: 17700 per monocyte | density of CD163 receptors per monocyte (PE antibodies bound per cell) [14]: 11400 per monocyte | percent of peripheral monocytes showing co-binding of KN2/NRY and Mac2-158 [20]: 70% | percentage of cell-associated radioactivity [21]: 61.3% | share of cells in the lower right quadrant (Mac2-158-FITC positive, CD14-PE negative) [22]: 1.22% | share of cells in the lower right quadrant (Mac2-158-FITC positive, KN2/NRY-Alexa Fluor 647 negative) [22]: 4.45% | share of cells in the upper right quadrant (Mac2-158-FITC positive, CD14-PE positive) [22]: 73.9% | share of cells in the upper right quadrant (positive for both Mac2-158-FITC and KN2/NRY-Alexa Fluor 647) [22]: 70.7%

Molecule: Mouse IgG, PE, k isotype control, MOPC-21 (antibody)
MFI [23]: 1.23 MFI

Molecule: RM3/1 (antibody)
fraction of CD14+ monocytes stained positive for CD163 [3]: 0.33% | Kd [25]: 0.6 nM | fraction of CD14+ monocytes stained positive for CD163 [5]: 12.5% | fraction of CD14+ monocytes stained positive for CD163 [6]: 3.33% | fraction of CD14+ monocytes stained positive for CD163 [8]: 2.5% | density of CD163 receptors per monocyte (PE antibodies bound per cell) [26]: 86 per monocyte | density of CD163 receptors per monocyte (PE antibodies bound per cell) [11]: 207 per monocyte | density of CD163 receptors per monocyte (PE antibodies bound per cell) [12]: 210 per monocyte | density of CD163 receptors per monocyte (PE antibodies bound per cell) [13]: 101 per monocyte | density of CD163 receptors per monocyte (PE antibodies bound per cell) [14]: 132 per monocyte | percentage of cell-associated radioactivity [27]: 7.77%

Results, then the molecule that gave them:

percent of peritoneal macrophages CD163 positive (rat CD163 on cells (rat) [1]): 42% | share of cells in the lower right quadrant (CD163 FITC positive, CD172a PE negative) (rat CD163 on cells (rat) [2]): 0.01% | share of cells in the upper right quadrant (CD163 FITC positive, CD172a PE positive) (rat CD163 on cells (rat) [2]): 42.9%
Molecule: ED2 (antibody)

share of cells in the lower right quadrant (IgG FITC positive) (rat CD163 on cells (rat) [18]): 0.41% | share of cells in the upper right quadrant (rat CD163 on cells (rat) [18]): 0.06%
Molecule: IgG-FITC (antibody)

background staining (PE antibodies bound per cell) [24]: 94 per monocyte
Molecule: R-PE-conjugated Mouse IgG1, k isotype control (MCG1) (antibody)

binding result [28]: binds
B1: 3E10B10 (antibody, V domains shown)
VH: QVKLQESGGGLVQPKESLKISCAASGFTFSTAAMYWVRQAPGKGLDWVARIRTKPDNYATYYPASVKGRFTISRDDSKGMVYLQMDNLKTEDTAIYYCTAAYYYDGRFDYWGQGVMVTVAS
VL: DIVMTQTPSSQAVSAGERVTMRCKSSQSLLYSENKKNYLAWYQQKPGQSPKLLISWASTRESGVPDRFIGSGSGTDFTLTISSVQAEDLAVYYCDQYYDPPFTFGSGTKLEIK
notes: Rat IgG2a hybridoma antibody raised against mouse CD163 domain 1-3; also called rat anti-mouse E10B10 (IgG2a)

Source: patent publication US20120276193A1 (CYTOGUIDE A S, published 2012)
